According to patent US20230201439A1:

Legend:
[1] = molecular target: Nucleosomes (cfDNA measured by Nu.Q H3.1 assay) in porcine liver perfusion solution (porcine); experiment: batch depletion: porcine liver perfusate with 10% v/v antibody-agarose matrix, 60 min, 37 C; what is left is measured by Nu.Q H3.1 assay; sample 3, before incubation 87643 ng/ml
[2] = molecular target: Nucleosomes (cfDNA measured by Nu.Q H3.1 assay) in porcine liver perfusion solution (porcine); experiment: batch depletion: porcine liver perfusate with 10% v/v antibody-agarose matrix, 60 min, 37 C; what is left is measured by Nu.Q H3.1 assay; sample 2, before incubation 73536 ng/ml
[3] = molecular target: Nucleosomes (cfDNA measured by Nu.Q H3.1 assay) in porcine liver perfusion solution (porcine); experiment: batch depletion: porcine liver perfusate with 10% v/v antibody-agarose matrix, 60 min, 37 C; what is left is measured by Nu.Q H3.1 assay; sample 1, before incubation 92466 ng/ml

- cfDNA quantity in perfusate after incubation with the matrix (Nu.Q H3 Assay) [1]: 29800 ng/mL
- cfDNA quantity in perfusate after incubation with the matrix (Nu.Q H3 Assay) [2]: 24300 ng/mL
- cfDNA quantity in perfusate after incubation with the matrix (Nu.Q H3 Assay) [3]: 38800 ng/mL
Substance: Antibody against histone H3.1 (Merck Millipore MABE952), coupled to NHS-activated Sepharose 4 Fast Flow
